Laboratory results as given in the supplement of paper PMC10724198.
± gives the standard deviation of the averaged measurements.

Legend:
Saccharomyces cerevisiae [1] = assay: protein stability index of tFT-peptide fusion (C-terminal peptide) (PSI (0-1 scale)); higher = more stable (slower turnover)
Description: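 MPS profiling in S. cerevisiae of the tFT-X12 degron library: putative degron peptides plus stable controls, 12 aa, fused to the C-terminus of a sfGFP-mCherry timer. Cells are FACS-sorted into 8 mCherry/sfGFP bins and deep-sequenced. PSI runs from 0 (unstable) to 1 (stable). Backgrounds are wild type, das1Δ and doa10Δ at 30 °C, and wild type, das1Δ, cdc34-1 and cdc53-1 at 37 °C; 2-3 technical replicates each.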

Saccharomyces cerevisiae [2] = assay: as above; settings: genetic background: wild type; temperature: 30 C
[3] = genetic background: cdc34-1, temperature: 37 C
[4] = genetic background: cdc53-1, temperature: 37 C
[5] = genetic background: das1 deletion, temperature: 30 C
[6] = genetic background: das1 deletion, temperature: 37 C
[7] = genetic background: doa10 deletion, temperature: 30 C
[8] = genetic background: wild type, temperature: 30 C
[9] = genetic background: wild type, temperature: 37 C
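Also: PSI is a weighted mean of sequencing reads over stability bins, variants kept only with over 10 reads, mCherry proximal and sfGFP distal, peptide attached via GGGS linker.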

Sequence	protein stability index (Saccharomyces cerevisiae [1]; [3])	protein stability index (Saccharomyces cerevisiae [1]; [4])	protein stability index (Saccharomyces cerevisiae [1]; [5])	protein stability index (Saccharomyces cerevisiae [1]; [6])	protein stability index (Saccharomyces cerevisiae [1]; [7])	protein stability index (Saccharomyces cerevisiae [1]; [8])	protein stability index (Saccharomyces cerevisiae [1]; [9])	protein stability index (Saccharomyces cerevisiae [2])
PCLPLTPMWTLF	0.713 ± 0.034	0.789 ± 0.021	0.678 ± 0.0076	0.7793 ± 0.0028	0.3716 ± 0.0014	0.42 ± 0.022	0.611 ± 0.018	0.493 ± 0.0072
TLRINSPFYFLS	0.694 ± 0.058	0.703 ± 0.02	0.654 ± 0.019	0.7509 ± 0.0024	0.242 ± 0.011	0.282 ± 0.022	0.53 ± 0.021	0.419 ± 0.012
SVSQTSILDSRL	0.7109 ± 0.0043	0.756 ± 0.022	0.668 ± 0.012	0.74121 ± 0.00058	0.667 ± 0.018	0.675 ± 0.012	0.7313 ± 0.0043	0.71 ± 0.0074
DGSFCLLYMTIA	0.504 ± 0.066	0.5745 ± 0.002	0.429 ± 0.02	0.615 ± 0.046	0.293 ± 0.0055	0.332 ± 0.016	0.4919 ± 0.0048	0.454 ± 0.01
GVSLQLHVAVLI	0.72 ± 0.39		0.483 ± 0.053	0.542 ± 0.056	0.275 ± 0.036	0.278 ± 0.0093	0.4284 ± 0.0018	0.44 ± 0.047
HVLALIFLYIPD	0.43 ± 0.045	0.55 ± 0.032	0.33 ± 0.037	0.5422 ± 0.0044	0.317 ± 0.021	0.355 ± 0.019	0.501 ± 0.0067	0.4163 ± 0.0012
IFSGCRIALSVF	0.0412 ± 0.013	0.052 ± 0.021	0.188 ± 0.018	0.165 ± 0.012	0.104 ± 0.0034	0.116 ± 0.01	0.0944 ± 0.039	0.181 ± 0.0085
IRWCLVSVFYVV	0.214 ± 0.028	0.364 ± 0.033	0.245 ± 0.033	0.444 ± 0.01	0.0753 ± 0.012	0.0978 ± 0.02	0.13554 ± 0.00011	0.192 ± 0.038
TLWWRQPFWGFG	0.731 ± 0.038	0.802 ± 0.0045	0.659 ± 0.013	0.8 ± 0.021	0.673 ± 0.0095	0.702 ± 0.013	0.781 ± 0.017	0.722 ± 0.042
LVCLTPPPSPFS	0.689 ± 0.021	0.799 ± 0.065	0.323 ± 0.04	0.5136 ± 0.0026	0.313 ± 0.009	0.332 ± 0.016	0.486 ± 0.021	0.412 ± 0.033
LGSCSLIYRKFS	0.597 ± 0.026	0.728 ± 0.017	0.639 ± 0.02	0.703 ± 0.029	0.0934 ± 0.0075	0.0958 ± 0.017	0.172 ± 0.021	0.204 ± 0.0059
LPVSLWLVCSFF	0.524 ± 0.009	0.543 ± 0.02	0.432 ± 0.023	0.5682 ± 0.00058	0.345 ± 0.023	0.358 ± 0.03	0.5283 ± 0.0021	0.324 ± 0.0038
GVLRMAPGRVMC	0.599 ± 0.031	0.704 ± 0.0083	0.598 ± 0.024	0.702 ± 0.016	0.159 ± 0.02	0.175 ± 0.0027	0.345 ± 0.04	0.268 ± 0.032
GWRFCVFIYVHR	0.0703 ± 0.011	0.0688 ± 0.0038	0.115 ± 0.033	0.196 ± 0.012	0.213 ± 0.018	0.107 ± 0.015	0.186 ± 0.0085	0.179 ± 0.042
TFRVLFSVALLV	0.172 ± 0.0042	0.216 ± 0.0069	0.259 ± 0.024	0.3436 ± 0.0022	0.1804 ± 0.00079	0.182 ± 0.021	0.2319 ± 0.0022	0.212 ± 0.086
SLCSSVQVWSVV	0.7 ± 0.049	0.763 ± 0.024	0.612 ± 0.013	0.732 ± 0.011	0.5868 ± 0.0032	0.634 ± 0.037	0.716 ± 0.011	0.693 ± 0.027
FVVVGLGLLCLA	0.492 ± 0.0066	0.565 ± 0.011	0.362 ± 0.027	0.569 ± 0.0068	0.257 ± 0.015	0.305 ± 0.02	0.491 ± 0.014	0.473 ± 0.013
YLFLPGGEVSVH	0.641 ± 0.033	0.653 ± 0.019	0.538 ± 0.032	0.666 ± 0.0033	0.5204 ± 0.0031	0.553 ± 0.019	0.6369 ± 0.00098	0.487 ± 0.083
CGFVCGLCLCRV	0.552 ± 0.052	0.586 ± 0.016	0.364 ± 0.04	0.605 ± 0.042	0.345 ± 0.023	0.381 ± 0.031	0.572 ± 0.013	0.484 ± 0.0062
LCSLPIVCCFFL	0.513 ± 0.015	0.552 ± 0.016	0.434 ± 0.031	0.5703 ± 0.0027	0.424 ± 0.016	0.427 ± 0.022	0.534 ± 0.016	0.489 ± 0.029
